Assay [1] deals with human Gcg receptor (human), P47871. Briefly: cell-based or functional assay.
Assay [2] concerns the target T1, rat GLP-1-R (rat), P32301.
T1 chain: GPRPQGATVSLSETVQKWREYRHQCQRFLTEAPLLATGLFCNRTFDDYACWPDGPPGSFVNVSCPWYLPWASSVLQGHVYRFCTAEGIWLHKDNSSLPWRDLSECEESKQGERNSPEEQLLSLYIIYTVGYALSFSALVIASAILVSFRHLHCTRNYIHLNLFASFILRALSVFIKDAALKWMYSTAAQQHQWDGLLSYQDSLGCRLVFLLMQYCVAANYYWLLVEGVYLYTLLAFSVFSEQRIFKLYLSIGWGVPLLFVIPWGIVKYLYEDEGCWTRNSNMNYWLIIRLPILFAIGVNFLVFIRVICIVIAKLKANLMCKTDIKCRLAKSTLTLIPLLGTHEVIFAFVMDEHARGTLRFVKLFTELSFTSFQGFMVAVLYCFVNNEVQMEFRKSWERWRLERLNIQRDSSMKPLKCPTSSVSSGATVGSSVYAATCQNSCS
As to the kind of experiment: cell-based or functional assay.

In assay [3] the target is T2, human GLP-1 receptor (human), P43220.
T2 chain: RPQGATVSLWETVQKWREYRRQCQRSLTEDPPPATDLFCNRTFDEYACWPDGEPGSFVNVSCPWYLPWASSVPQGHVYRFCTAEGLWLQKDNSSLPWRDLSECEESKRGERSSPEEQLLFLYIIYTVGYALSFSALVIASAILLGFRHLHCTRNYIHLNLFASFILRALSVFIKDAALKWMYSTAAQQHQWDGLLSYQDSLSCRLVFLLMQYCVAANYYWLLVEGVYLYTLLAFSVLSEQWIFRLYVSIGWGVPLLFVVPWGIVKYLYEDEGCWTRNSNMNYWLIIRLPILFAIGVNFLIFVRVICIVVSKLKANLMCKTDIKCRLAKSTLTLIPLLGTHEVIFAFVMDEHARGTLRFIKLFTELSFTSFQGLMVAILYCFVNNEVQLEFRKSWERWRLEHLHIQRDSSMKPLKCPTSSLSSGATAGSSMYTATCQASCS
Briefly: cell-based or functional assay.

For assay [4] the target is unchanged. Briefly: radioligand competition SPA, displacement of I-125 GLP-1, hGLP-1-R 293HEK membranes. Background: Loss of bound radioactivity is the signal in a displacement assay; it reports binding, not function.
For assay [5], the target named is human Gcg receptor (human), P47871. As to the kind of experiment: radioligand competition SPA, displacement of I-125 Gcg, hGcg-R 293HEK membranes.

Starred links: 1 amine or outer side, 2 acyl side, 3 side chain; linkers in the order of their positions; H or OH if unused. Non-standard residues stand in square brackets, D forms with d. Groups on a side chain read outwards from the residue. *: point of attachment. C20 diacid = O=C(O)CCCCCCCCCCCCCCCCCCC(=O)*; C18 diacid = O=C(O)CCCCCCCCCCCCCCCCC(=O)*; γGlu = O=C(O)[C@H](CCC(=O)[*:2])N[*:1]; AEEA = NCCOCCOCC(=O)O; Aib = CC(C)(N)C(=O)O

Broadly, the Ki is the dissociation constant of the complex between target and ligand, obtained from inhibition or displacement. High values mean a looser hold on the target, low ones a stronger hold on the target.

Sequence of human Gcg receptor (human), P47871 (P47871 26-477): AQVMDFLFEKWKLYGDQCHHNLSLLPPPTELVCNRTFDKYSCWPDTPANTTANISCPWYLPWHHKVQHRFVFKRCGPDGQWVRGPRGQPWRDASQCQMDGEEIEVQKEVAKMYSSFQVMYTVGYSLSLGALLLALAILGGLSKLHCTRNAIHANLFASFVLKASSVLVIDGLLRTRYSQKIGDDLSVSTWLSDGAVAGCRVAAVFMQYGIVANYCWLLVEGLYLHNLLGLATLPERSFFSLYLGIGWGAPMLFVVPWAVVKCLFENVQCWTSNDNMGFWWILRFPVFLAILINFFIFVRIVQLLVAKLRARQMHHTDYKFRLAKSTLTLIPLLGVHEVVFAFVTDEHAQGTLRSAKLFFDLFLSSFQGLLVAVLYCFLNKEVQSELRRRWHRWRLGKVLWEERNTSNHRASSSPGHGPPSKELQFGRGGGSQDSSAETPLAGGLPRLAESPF

B1: Compound 2 (peptide)
peptide: H-H[Aib]QGTFTSDYSKYLDEKKAK([AEEA-AEEA-γGlu-C20 diacid])EFVEWLLEGGPSSG-NH2
In assay [1], B1 gave an EC50 (nM), cAMP production in primary human hepatocytes of 159 nM and an EC50, cAMP production of 26.5 nM. In assay [2], this molecule registered an EC50 (nM), cAMP production in INS1 832-3 cells of 62 nM and an Emax (%), cAMP production in INS1 832-3 cells of 104%. In addition, in assay [3], the EC50, cAMP production amounted to 83.1 nM and the Emax, cAMP production is 107%. In assay [4], this molecule came in with a Ki of 28.6 nM. For the same molecule, in assay [5], the Ki is 17.7 nM.

B2: Compound 1 (peptide)
peptide: H-H[Aib]QGTFTSDYSKYLDEKKAK([AEEA-AEEA-γGlu-C18 diacid])EFVEWLLEGGPSSG-NH2
SMILES: CC(C)C[C@H](NC(=O)[C@H](CC(C)C)NC(=O)[C@H](Cc1c[nH]c2ccccc12)NC(=O)[C@H](CCC(=O)O)NC(=O)[C@@H](NC(=O)[C@H](Cc1ccccc1)NC(=O)[C@H](CCC(=O)O)NC(=O)[C@H](CCCCNC(=O)COCCOCCNC(=O)COCCOCCNC(=O)CC[C@H](NC(=O)CCCCCCCCCCCCCCCCC(=O)O)C(=O)O)NC(=O)[C@H](C)NC(=O)[C@H](CCCCN)NC(=O)[C@H](CCCCN)NC(=O)[C@H](CCC(=O)O)NC(=O)[C@H](CC(=O)O)NC(=O)[C@H](CC(C)C)NC(=O)[C@H](Cc1ccc(O)cc1)NC(=O)[C@H](CCCCN)NC(=O)[C@H](CO)NC(=O)[C@H](Cc1ccc(O)cc1)NC(=O)[C@H](CC(=O)O)NC(=O)[C@H](CO)NC(=O)[C@@H](NC(=O)[C@H](Cc1ccccc1)NC(=O)[C@@H](NC(=O)CNC(=O)[C@H](CCC(N)=O)NC(=O)C(C)(C)NC(=O)[C@@H](N)Cc1c[nH]cn1)[C@@H](C)O)[C@@H](C)O)C(C)C)C(=O)N[C@@H](CCC(=O)O)C(=O)NCC(=O)NCC(=O)N1CCC[C@H]1C(=O)N[C@@H](CO)C(=O)N[C@@H](CO)C(=O)NCC(N)=O
In the case of B2, in assay [1], the EC50 (nM), cAMP production in primary human hepatocytes was 99.9 nM and the EC50, cAMP production came to 7.21 nM. In addition, in assay [2], the EC50 (nM), cAMP production in INS1 832-3 cells was found to be 26.1 nM and the Emax (%), cAMP production in INS1 832-3 cells stood at 112%. In assay [3], this molecule yielded an EC50, cAMP production of 23.9 nM and an Emax, cAMP production of 104%. In assay [4], the Ki stood at 23 nM. The Ki in assay [5] stood at 14.6 nM.

B3: Compound 4 (peptide)
peptide: H-H[Aib]QGTFTSDYSKYLDEKKAK([AEEA-AEEA-γGlu-γGlu-C20 diacid])EFVEWLLSGGPSSG-NH2
SMILES: CC(C)C[C@H](NC(=O)[C@H](CC(C)C)NC(=O)[C@H](Cc1c[nH]c2ccccc12)NC(=O)[C@H](CCC(=O)O)NC(=O)[C@@H](NC(=O)[C@H](Cc1ccccc1)NC(=O)[C@H](CCC(=O)O)NC(=O)[C@H](CCCCNC(=O)COCCOCCNC(=O)COCCOCCNC(=O)CC[C@H](NC(=O)CC[C@H](NC(=O)CCCCCCCCCCCCCCCCCCC(=O)O)C(=O)O)C(=O)O)NC(=O)[C@H](C)NC(=O)[C@H](CCCCN)NC(=O)[C@H](CCCCN)NC(=O)[C@H](CCC(=O)O)NC(=O)[C@H](CC(=O)O)NC(=O)[C@H](CC(C)C)NC(=O)[C@H](Cc1ccc(O)cc1)NC(=O)[C@H](CCCCN)NC(=O)[C@H](CO)NC(=O)[C@H](Cc1ccc(O)cc1)NC(=O)[C@H](CC(=O)O)NC(=O)[C@H](CO)NC(=O)[C@@H](NC(=O)[C@H](Cc1ccccc1)NC(=O)[C@@H](NC(=O)CNC(=O)[C@H](CCC(N)=O)NC(=O)C(C)(C)NC(=O)[C@@H](N)Cc1c[nH]cn1)[C@@H](C)O)[C@@H](C)O)C(C)C)C(=O)N[C@@H](CO)C(=O)NCC(=O)NCC(=O)N1CCC[C@H]1C(=O)N[C@@H](CO)C(=O)N[C@@H](CO)C(=O)NCC(N)=O
On to B3, for which the EC50, cAMP production amounted to 68.8 nM in assay [1] and 106 nM in assay [3]. For the same molecule, the Emax, cAMP production in assay [1] amounted to 116%; in assay [3], 85.2%. The Ki in assay [4] came to 20.2 nM; in assay [5], 27.4 nM.

B4: Compound 3 (peptide)
peptide: H-H[Aib]QGTFTSDYSKYLDEKKAK([AEEA-AEEA-γGlu-γGlu-C18 diacid])EFVEWLLSGGPSSG-NH2
SMILES: CC(C)C[C@H](NC(=O)[C@H](CC(C)C)NC(=O)[C@H](Cc1c[nH]c2ccccc12)NC(=O)[C@H](CCC(=O)O)NC(=O)[C@@H](NC(=O)[C@H](Cc1ccccc1)NC(=O)[C@H](CCC(=O)O)NC(=O)[C@H](CCCCNC(=O)COCCOCCNC(=O)COCCOCCNC(=O)CC[C@H](NC(=O)CC[C@H](NC(=O)CCCCCCCCCCCCCCCCC(=O)O)C(=O)O)C(=O)O)NC(=O)[C@H](C)NC(=O)[C@H](CCCCN)NC(=O)[C@H](CCCCN)NC(=O)[C@H](CCC(=O)O)NC(=O)[C@H](CC(=O)O)NC(=O)[C@H](CC(C)C)NC(=O)[C@H](Cc1ccc(O)cc1)NC(=O)[C@H](CCCCN)NC(=O)[C@H](CO)NC(=O)[C@H](Cc1ccc(O)cc1)NC(=O)[C@H](CC(=O)O)NC(=O)[C@H](CO)NC(=O)[C@@H](NC(=O)[C@H](Cc1ccccc1)NC(=O)[C@@H](NC(=O)CNC(=O)[C@H](CCC(N)=O)NC(=O)C(C)(C)NC(=O)[C@@H](N)Cc1c[nH]cn1)[C@@H](C)O)[C@@H](C)O)C(C)C)C(=O)N[C@@H](CO)C(=O)NCC(=O)NCC(=O)N1CCC[C@H]1C(=O)N[C@@H](CO)C(=O)N[C@@H](CO)C(=O)NCC(N)=O
With B4, the EC50, cAMP production in assay [1] turned out to be 15.3 nM; in assay [3], 34.3 nM. In addition, the Emax, cAMP production was 104% in assay [1] and 105% in assay [3]. The Ki in assay [4] turned out to be 8.68 nM; in assay [5], 37.3 nM.
